The values below come from publication PMC7641332 (Nucleic Acids Research, 2020).

First the molecules themselves.
B2: 2× MBP-BRCA2CT-FLAG-His10 (domain or fragment)
chain: QEKSLKASKSTPDGTIKDRRLFMHHVSLEPITCVPFRTTKERQEIQNPNFTAPGQEFLSKSHLYEHLTLEKSSSNLAVSGHPFYQVSATRNEKMRHLITTGRPTKVFVPPFKTKSHFHRVEQCVRNINLEENRQKQNIDGHGSDDSKNKINDNEIHQFNKNNSNQAVAVTFTKCEEEPLDLITSLQNARDIQDMRIKKKQRQRVFPQPGSLYLAKTSTLPRISLKAAVGGQVPSACSHKQLYTYGVSKHCIKINSKNAESFQFHTEDYFGKESLWTGKGIQLADGGWLIPSNDGKAGKEEFYRALCDTPGVDPKLISRIWVYNHYRWIIWKLAAMECAFPKEFANRCLSPERVLLQLKYRYDTEIDRSRRSAIKKIMERDDTAAKTLVLCVSDIISLSANISETSSNKTSSADTQKVAIIELTDGWYAVKAQLDPPLLAVLKNGRLTVGQKIILHGAELVGSPDACTPLEAPESLMLKISANSTRPARWYTKLGFFPDPRPFPLPLSSLFSDGGNVGCVDVIIQRAYPIQWMEKTSSGLYIFRNEREEEKEAAKYVEAQQKRLEALFTKIQEEFEEHEENTTKPYLPSRALTRQQVRALQDGAELYEAVKNAADPAYLEGYFSEEQLRALNNHRQMLNDKKQAQIQLEIRKAMESAEQKEQGLSRDVTTVWKLRIVSYSKKEKDSVILSIWRPSSDLYSLLTEGKRYRIYHLATSKSKSKSERANIQLAATKKTQYQQLPVSDEILFQIYQPREPLHFSKFLDPDFQPSCSEVDLIGFVVSVVKKTGLAPFVYLSDECYNLLAIKFWIDLNEDIIKPHMLIAASNLQWRPESKSGLLTLFAGDFSVFSASPKEGHFQETFNKMKNTVENIDILCNEAENKLMHILHANDPKWSTPTKDCTSGPYTAQIIPGTGNKLLMSSPNCEIYYQSPLSLCMAKRKSVSTPVSAQMTSKSCKGEKEIDDQKNCKKRRALDFLSRLPLPPPVSPICTFVSPAAQKAFQPPRSCGTKYETPIKKKELNSPQMTPFKKFNEISLLESNSIADEELALINTQALLSGSTGEKQFISVSESTRTAPTSSEDYLRLKRRCTTSLIKEQESSQASTEECEKNKQDTITTKKYI
B4: GST-BRCA2NT-HA-His10 (domain or fragment)
chain: MPIGSKERPTFFEIFKTRCNKADLGPISLNWFEELSSEAPPYNSEPAEESEHKNNNYEPNLFKTPQRKPSYNQLASTPIIFKEQGLTLPLYQSPVKELDKFKLDLGRNVPNSRHKSLRTVKTKMDQADDVSCPLLNSCLSESPVVLQCTHVTPQRDKSVVCGSLFHTPKFVKGRQTPKHISESLGAEVDPDMSWSSSLATPPTLSSTVLIVRNEEASETVFPHDTTANVKSYFSNHDESLKKNDRFIASVTDSENTNQREAASHGFGKTSGNSFKVNSCKDHIGKSMPNVLEDEVYETVVDTSEEDSFSLCFSKCRTKNLQKVRTSKTRKKIFHEANADECEKSKNQVKEKYSFVSEVEPNDTDPLDSNVANQKPFESGSDKISKEVVPSLACEWSQLTLSGLNGAQMEKIPLLHISSCDQNISEKDLLDTENKRKKDFLTSENSLPRISSLPKSEKPLNEETVVNKRDEEQHLESHTDCILAVKQAISGTSPVASSFQGIKKSIFRIRESPKETFNASFSGHMTDPNFKKETEASESGLEIHTVCSQKEDSLCPNLIDNGSWPATTTQNSVALKNAGLISTLKKKTNKFIYAIHDETSYKGKKIPKDQKSELINCSAQFEANAFEAPLTFANADSGLLHSSVKRSCSQNDSEEPTLSLTSSFGTILRKCSRNETCSNNTVISQDLDYKEAKCNKEKLQLFITPEADSLSCLQE
B5: 2× MBP-BRCA2NT-FLAG-His10 (domain or fragment)
chain: MPIGSKERPTFFEIFKTRCNKADLGPISLNWFEELSSEAPPYNSEPAEESEHKNNNYEPNLFKTPQRKPSYNQLASTPIIFKEQGLTLPLYQSPVKELDKFKLDLGRNVPNSRHKSLRTVKTKMDQADDVSCPLLNSCLSESPVVLQCTHVTPQRDKSVVCGSLFHTPKFVKGRQTPKHISESLGAEVDPDMSWSSSLATPPTLSSTVLIVRNEEASETVFPHDTTANVKSYFSNHDESLKKNDRFIASVTDSENTNQREAASHGFGKTSGNSFKVNSCKDHIGKSMPNVLEDEVYETVVDTSEEDSFSLCFSKCRTKNLQKVRTSKTRKKIFHEANADECEKSKNQVKEKYSFVSEVEPNDTDPLDSNVANQKPFESGSDKISKEVVPSLACEWSQLTLSGLNGAQMEKIPLLHISSCDQNISEKDLLDTENKRKKDFLTSENSLPRISSLPKSEKPLNEETVVNKRDEEQHLESHTDCILAVKQAISGTSPVASSFQGIKKSIFRIRESPKETFNASFSGHMTDPNFKKETEASESGLEIHTVCSQKEDSLCPNLIDNGSWPATTTQNSVALKNAGLISTLKKKTNKFIYAIHDETSYKGKKIPKDQKSELINCSAQFEANAFEAPLTFANADSGLLHSSVKRSCSQNDSEEPTLSLTSSFGTILRKCSRNETCSNNTVISQDLDYKEAKCNKEKLQLFITPEADSLSCLQE

Common to all, as to assay: pull-down
The target in experiment [1] is B5.
The target of a further experiment is T1, 2× MBP-BRCA2OB2-His10 (human, UniProt P51587 2780-3080).
T1 sequence: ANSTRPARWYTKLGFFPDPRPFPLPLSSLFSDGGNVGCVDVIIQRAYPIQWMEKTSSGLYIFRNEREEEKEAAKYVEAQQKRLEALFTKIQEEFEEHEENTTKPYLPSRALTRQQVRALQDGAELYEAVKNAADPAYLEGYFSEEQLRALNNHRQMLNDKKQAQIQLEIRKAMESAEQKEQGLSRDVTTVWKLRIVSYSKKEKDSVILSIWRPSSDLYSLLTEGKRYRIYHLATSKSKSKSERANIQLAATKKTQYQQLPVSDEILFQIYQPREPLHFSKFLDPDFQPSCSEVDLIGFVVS

The experiment “GST-BRCA2NT-HA-His10” addresses B4.
Experiment [2] concerns the target B2.

B1: GST-BRCA2N9 (domain or fragment)
chain: ILAVKQAISGTSPVASSFQGIKKSIFRIRESPKETFNASFSGHMTDPNFKKETEASESGLEIHTVCSQKEDSLCPNLIDNGSWPATTTQNSVALKNAGLISTLKKKTNKFIYAIHDETSYKGKKIPKDQKSELINCSAQFEANAFEAPLTFANADSGLLHSSVKRSCSQNDSEEPTLSLTSSFGTILRKCSRNETCSNNTVISQDLDYKEAKCNKEKLQLFITPEADSLSCLQE
As for B1, the binding result (in experiment [1]; with 2× MBP-BRCA2OB2-His10) was “binds” each time.
Regarding B2, in the experiment with GST-BRCA2NT-HA-His10, the “fold stronger than the interaction of MBP-BRCA2NT with GST-BRCA2NT” value was ~6 fold.

B3: GST-BRCA2N7 (domain or fragment)
chain: VTDSENTNQREAASHGFGKTSGNSFKVNSCKDHIGKSMPNVLEDEVYETVVDTSEEDSFSLCFSKCRTKNLQKVRTSKTRKKIFHEANADECEKSKNQVKEKYSFVSEVEPNDTDPLDSNV
Consider B3, for which the binding result in experiment [1] is “binds”.
B4: in experiment [2], the binding result is on record as “binds”.
Consider B5, for which, in the experiment with GST-BRCA2NT-HA-His10, the binding result is given as “binds”.
